Patent publication US20030099631A1

T1: DNP-Pro-Cha-Abu-Cys(Me)-His-Ala-Lys(N-Me-Abz)-NH2
T1 sequence: PXXCHAK

B1: human liver-derived metalloprotease transiently expressed in COS-7 cells transfected with pTB1921 (culture supernatant, treated with aminophenyl-mercuric … (protein)
chain: YLLLGRWRKKHLTFRILNLPSTLPPHTARAALRQAFQDWSNVAPLTFQEVQAGAADIRLSFHGRQSSYCSNTFDGPGRVLAHADIPELGSVHFDEDEFWTEGTYRGVNLRIIAAHEVGHALGLGHSRYSQALMAPVYEGYRPHFKLHPDDVAGIQALYGKKSPVIRDEEEEETELPTVPPVPTEPSPMPDPCSSELDAMMLGPRGKTYAFKGDYVWTVSDSGPGPLFRVSALWEGLPGNLDAAVYSPRTQWIHFFKGDKVWRYINFKMSPGFPKKLNRVEPNLDAALYWPLNQKVFLFKGSGYWQWDELARTDFSSYPKPIKGLFTGVPNQPSAAMSWQDGRVYFFKGKVYWRLNQQLRVEKGYPRNISHNWMHCRPRTIDTTPSGGNTTPSGTGITLDTTLSATETTFEY

What was measured:
[1] = system: T1, DNP-Pro-Cha-Abu-Cys(Me)-His-Ala-Lys(N-Me-Abz)-NH2
[2] = molecular target: casein

| Molecule | intensity of fluorescence (excitation 365 nm, emission 460 nm) after cleavage of the substrate [1] | casein hydrolyzing activity (PER assay) [2] |
| --- | --- | --- |
| recombinant human liver-derived metalloprotease expressed in Escherichia coli JM109/pNHMB | a fluorescence intensity of 230 | – |
| B1 | – | casein hydrolyzing activity which was not found in the mock culture supernatant was detected in the culture supernatant of COS-7 cells transfected with pTB1921 |
